Test results as given in the Human Domainome abundance scans (Beltran et al. 2025).
± gives the uncertainty stated by the source.

B1: CD2-associated protein, residues 109 to 169; numbered along this chain, Q9Y5K6 (parent)
chain: KKRQCKVLFEYIPQNEDELELKVGDIIDINEEVEEGWWSGTLNNKLGLFPSNFVKELEVTD

Variants of: B1
Assay: abundance fitness (aPCA) (normalised: wild type 0, dead -1); higher = more abundant; growth selection in yeast, the domain comes from the species named
Details: Homo sapiens

Abundance fitness, by site and new letter:
E35: L -0.452 ± 0.13; V -0.15 ± 0.098; T -0.185 ± 0.15; H -0.318 ± 0.35; N -0.12 ± 0.26; A -0.226 ± 0.2; K -0.352 ± 0.17; S 0.213 ± 0.13; R -0.15 ± 0.12; Y -0.395 ± 0.3; Q -0.153 ± 0.19; C 0.015 ± 0.15; P -0.139 ± 0.22; D -0.146 ± 0.33; M -0.169 ± 0.25
I26: L -0.245 ± 0.096; M -0.369 ± 0.12; E -0.484 ± 0.2; W -0.442 ± 0.28; C -0.722 ± 0.29; D -0.599 ± 0.31; P -0.818 ± 0.46; R -0.813 ± 0.14; V -0.262 ± 0.11; K -0.624 ± 0.17; Q -0.744 ± 0.25; A -0.912 ± 0.27; S -0.623 ± 0.12; T -0.495 ± 0.13; H -0.391 ± 0.44; G -1.03 ± 0.25
N15: G -0.19 ± 0.14; E -0.275 ± 0.21; T -0.097 ± 0.1; A 0.041 ± 0.14; S -0.04 ± 0.086; L -0.468 ± 0.1; Q -0.26 ± 0.13; M -0.614 ± 0.36; W -0.483 ± 0.15; I -0.851 ± 0.22; Y -0.558 ± 0.27; F -0.448 ± 0.15; R 0.153 ± 0.078; P -0.639 ± 0.17; C -0.3 ± 0.13; K -0.041 ± 0.18; H -0.148 ± 0.16
L21: I -0.4 ± 0.16; M -0.319 ± 0.37; A -0.838 ± 0.19; S -0.719 ± 0.21; F -0.826 ± 0.4; R -0.861 ± 0.26; V -0.678 ± 0.22; N -0.355 ± 0.29; Q -0.893 ± 0.42; G -0.348 ± 0.16
Q14: T 0.079 ± 0.16; S -0.325 ± 0.25; R -0.183 ± 0.15; H -0.509 ± 0.42; V -0.338 ± 0.27; L -0.407 ± 0.23; C -0.304 ± 0.24; A -0.203 ± 0.39; G -0.337 ± 0.18; W -0.788 ± 0.32
W37: D -0.387 ± 0.4; E 0 ± 0.24; F -0.201 ± 0.18; G -0.74 ± 0.43; A -0.855 ± 0.32; H -0.656 ± 0.31; I -0.524 ± 0.24
E20: C 0.107 ± 0.24; R -0.125 ± 0.17; M -0.229 ± 0.24; W 0.012 ± 0.15; I -0.502 ± 0.34; G -0.369 ± 0.19; V -0.435 ± 0.25; L -0.157 ± 0.16; A -0.015 ± 0.18; T -0.409 ± 0.24; S -0.317 ± 0.17; H -0.214 ± 0.32; K -0.002 ± 0.46
I29: W -0.693 ± 0.2; F -0.274 ± 0.15; N -0.431 ± 0.21; Q -0.823 ± 0.27; A -0.833 ± 0.35; S -0.737 ± 0.22; P -0.625 ± 0.21; H -0.482 ± 0.28; T -0.543 ± 0.19; G -0.31 ± 0.24; L -0.219 ± 0.077; V 0.085 ± 0.35; M 0.038 ± 0.16; C -0.57 ± 0.28; Y -0.886 ± 0.31; R -0.678 ± 0.22; K -0.63 ± 0.26; E -0.78 ± 0.36
E34: L -0.611 ± 0.28; W -0.347 ± 0.15; S 0.016 ± 0.11; G -0.067 ± 0.16; N -0.337 ± 0.44; V -0.05 ± 0.13; A -0.167 ± 0.15; K 0.299 ± 0.3; I -0.247 ± 0.21; Q -0.147 ± 0.23; Y -0.126 ± 0.22; M -0.045 ± 0.19; D -0.3 ± 0.15; F -0.393 ± 0.3; H 0.179 ± 0.14; T 0.008 ± 0.11
D17: R 0.076 ± 0.16; T -0.298 ± 0.46; L -0.13 ± 0.13; V 0.051 ± 0.14; F -0.249 ± 0.47; E 0.128 ± 0.11; S 0.289 ± 0.14; A -0.142 ± 0.1; Q -0.313 ± 0.36; H -0.343 ± 0.24; K -0.583 ± 0.45; P -0.518 ± 0.21; Y -0.192 ± 0.38; G -0.092 ± 0.12; M 0.001 ± 0.26
G36: C -0.467 ± 0.089; D -0.178 ± 0.079; P -0.939 ± 0.25; E 0.041 ± 0.23; K -0.278 ± 0.21; V -0.651 ± 0.12; I -0.605 ± 0.11; A -0.357 ± 0.087; M -0.201 ± 0.12; H -0.375 ± 0.09; N -0.004 ± 0.085; Y -0.276 ± 0.076; Q -0.457 ± 0.26; R -0.323 ± 0.09; W -0.59 ± 0.21
K22: P -0.612 ± 0.43; S -0.273 ± 0.15; W -0.448 ± 0.23; L -0.952 ± 0.38; T 0.216 ± 0.24; Q -0.406 ± 0.19; C -0.08 ± 0.39; H 0.219 ± 0.29; I -0.308 ± 0.44; R -0.244 ± 0.16; G -0.182 ± 0.27; E -0.66 ± 0.38; V -0.388 ± 0.28
G24: V -0.615 ± 0.26; E -0.227 ± 0.23
